# Laboratory results as given in paper PMC7108862, “GPC1 specific CAR-T cells eradicate established solid tumor without adverse effects and synergize with anti-PD-1 Ab” (eLife, 2020).
# Columns and labels:
# [1] = target: T1, recombinant hGPC1 protein (Homo sapiens, UniProt P35052); test: SPR; scFv-Fc fusion protein (1 μg/ml) captured by polyclonal rabbit anti-mouse IgG immobilised on CM5 chip; recombinant hGPC1 (6.25–400 nM) or mGPC1 (25–400 nM) injected; 25°C, HBS-EP+ buffer, Biacore T200; conditions: both partners purified
# T1 construct: glypican-1 (GPC1), human, recombinant protein from Biolegend; also called Human GPC1; human glypican-1; source: bought: Biolegend
# T1 sequence (P35052 24-530): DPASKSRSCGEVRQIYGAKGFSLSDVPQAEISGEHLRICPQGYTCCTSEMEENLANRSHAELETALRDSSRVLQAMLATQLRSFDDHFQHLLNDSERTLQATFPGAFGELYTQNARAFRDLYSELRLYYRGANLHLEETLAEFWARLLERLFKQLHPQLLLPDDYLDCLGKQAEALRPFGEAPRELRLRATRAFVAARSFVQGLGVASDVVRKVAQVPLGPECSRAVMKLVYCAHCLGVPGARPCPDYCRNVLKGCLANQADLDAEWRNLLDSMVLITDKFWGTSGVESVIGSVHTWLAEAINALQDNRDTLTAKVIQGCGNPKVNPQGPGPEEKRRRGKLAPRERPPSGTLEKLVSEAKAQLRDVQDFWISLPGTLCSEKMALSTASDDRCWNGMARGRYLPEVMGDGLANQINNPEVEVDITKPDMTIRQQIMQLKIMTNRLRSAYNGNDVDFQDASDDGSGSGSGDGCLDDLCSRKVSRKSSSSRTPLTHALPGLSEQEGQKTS
# [2] = target: T2, recombinant mGPC1 protein (Mus musculus, UniProt Q9QZF2); test: as above; conditions: both partners purified
# T2 construct: glypican-1 (GPC1), mouse, recombinant protein from Biolegend; also called Mouse GPC1; mouse glypican-1; source: bought: Biolegend
# T2 sequence (Q9QZF2 24-529): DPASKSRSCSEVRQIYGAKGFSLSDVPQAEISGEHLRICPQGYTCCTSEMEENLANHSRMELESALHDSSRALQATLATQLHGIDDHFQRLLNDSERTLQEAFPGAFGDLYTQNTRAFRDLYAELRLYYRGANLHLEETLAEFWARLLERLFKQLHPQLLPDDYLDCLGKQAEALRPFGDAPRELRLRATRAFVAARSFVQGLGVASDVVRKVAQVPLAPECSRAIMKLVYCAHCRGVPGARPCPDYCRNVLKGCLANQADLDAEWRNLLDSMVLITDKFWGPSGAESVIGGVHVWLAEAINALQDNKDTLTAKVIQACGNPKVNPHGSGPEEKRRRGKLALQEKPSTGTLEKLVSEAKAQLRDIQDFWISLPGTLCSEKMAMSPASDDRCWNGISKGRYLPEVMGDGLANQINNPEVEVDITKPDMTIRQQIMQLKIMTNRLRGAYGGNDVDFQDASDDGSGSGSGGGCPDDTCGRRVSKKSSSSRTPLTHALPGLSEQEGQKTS
Binder,Kd [1] [nM],Kd [2] [nM]
"LH form of anti GPC1 scFv-mIgG2a Fc fusion protein (scFv, V domains shown, VL of anti-GPC1 mAb (clone: 1–12); purple) and its source data 1; linker of the scFv; orange); VH of anti-GPC1 mAb (clone: 1–12); green) and its source data 1; scFv cloned into pCAG-Neo mIgG2a-Fc plasmid (FUJIFILM Wako); Variable regions come from a chicken-based antibody; In the functional rows the same scFv stood as a CAR (human CD28 and CD3ζ domains) on human T cells; also called LH form of …) VH: AVTLDESGGGLQTPGRALSLVCKASGFTFSRYAMYWVRQAPGKGLEFVAGIGNTGRYTGYGSAVKGRATISRDSGQSTVRLQLNNLRAEDTGNYYCAKSVSPYCCDAADIDAWGHGTEVIVSS VL: ASTQPSSVSANPGETVKITCSGGSSGYAYGWYQQKSPGSAPVTLLYSNNNRPSDIPSRFSGSKSGSTATLTITGVQAEDEAVYFCGSVDSSSYAGIFGAGTTLTVL",9.06,51.8
"HL form of anti GPC1 scFv-mIgG2a Fc fusion protein (scFv, V domains shown, VH of anti-GPC1 mAb (clone: 1–12), as the VH of m1; linker of the scFv; orange); VL of anti-GPC1 mAb (clone: 1–12), as the VL of m1; scFv cloned into pCAG-Neo mIgG2a-Fc plasmid (FUJIFILM Wako); Variable regions come from a chicken-based antibody; In the functional rows the same scFv stood as a CAR on human T cells (human CD28/CD3ζ) or murine T cells (mouse CD28/CD3ζ); also called HL form of scFv; …) VH: AVTLDESGGGLQTPGRALSLVCKASGFTFSRYAMYWVRQAPGKGLEFVAGIGNTGRYTGYGSAVKGRATISRDSGQSTVRLQLNNLRAEDTGNYYCAKSVSPYCCDAADIDAWGHGTEVIVSS VL: ASTQPSSVSANPGETVKITCSGGSSGYAYGWYQQKSPGSAPVTLLYSNNNRPSDIPSRFSGSKSGSTATLTITGVQAEDEAVYFCGSVDSSSYAGIFGAGTTLTVL",12.2,109
